The results in this text go back to patent publication US20190315847A1 (UNIVERSITY OF PITTSBURGH OF THE COMMONWEALTH SYSTEM OF …, published 2019).

In the experiment the target is T1, insulin like growth factor 1 receptor (IGF1R) (human, UniProt P08069 31-736; P08069 741-1367).
T1 construct: Endogenous IGF1R in MCF-7 and T47D breast cancer cells; also called IGF1 receptor; IGFR1
As to the kind of experiment: in situ proximity ligation assay (Duolink), MCF-7 and T47D cells. As for the experimental part: In situ proximity ligation assay (PLA) was used to analyze the direct interaction between IGF1R and E-cadherin in breast cancer cells. MCF-7 (FIG. 7A) and T47D (FIG. 7B) cells were plated on coverslips, fixed, and stained with IGF1R and E-cadherin antibody overnight. The Duolink (Sigma) protocol was followed and coverslips were imaged using confocal microscopy to reveal red puncta. MCF-7 cells transfected with anti-CDH1 siRNA (siCDH1; FIG. 7C) or anti-IGF1R siRNA (siIGF1R; FIG. 7D) were used as negative controls for the assay to assess primary antibody specificity. […] All puncta and nuclei in 60× images were counted. One-way ANOVA was used to determine significant difference between groups (p<0.05; one independent experiment, n=5 images per slide counted). Further, IGF1R (green; second column from left) and E-cadherin (red; third column from left) were analyzed for co-localization (merge; fourth column from left) by immunofluorescence staining in MCF-7 cells transfected with siSCR (FIG. 7J) or siCDH1 (FIG. 7K). […]
Cells were plated on coverslips and fixed in 4% paraformaldehyde for 30 minutes at 37° C. […] The ratio of puncta/nuclei for each experimental condition was calculated by counting all puncta and nuclei in five 60× images.

T1 sequence (P08069 31-736, chain 1 of 2): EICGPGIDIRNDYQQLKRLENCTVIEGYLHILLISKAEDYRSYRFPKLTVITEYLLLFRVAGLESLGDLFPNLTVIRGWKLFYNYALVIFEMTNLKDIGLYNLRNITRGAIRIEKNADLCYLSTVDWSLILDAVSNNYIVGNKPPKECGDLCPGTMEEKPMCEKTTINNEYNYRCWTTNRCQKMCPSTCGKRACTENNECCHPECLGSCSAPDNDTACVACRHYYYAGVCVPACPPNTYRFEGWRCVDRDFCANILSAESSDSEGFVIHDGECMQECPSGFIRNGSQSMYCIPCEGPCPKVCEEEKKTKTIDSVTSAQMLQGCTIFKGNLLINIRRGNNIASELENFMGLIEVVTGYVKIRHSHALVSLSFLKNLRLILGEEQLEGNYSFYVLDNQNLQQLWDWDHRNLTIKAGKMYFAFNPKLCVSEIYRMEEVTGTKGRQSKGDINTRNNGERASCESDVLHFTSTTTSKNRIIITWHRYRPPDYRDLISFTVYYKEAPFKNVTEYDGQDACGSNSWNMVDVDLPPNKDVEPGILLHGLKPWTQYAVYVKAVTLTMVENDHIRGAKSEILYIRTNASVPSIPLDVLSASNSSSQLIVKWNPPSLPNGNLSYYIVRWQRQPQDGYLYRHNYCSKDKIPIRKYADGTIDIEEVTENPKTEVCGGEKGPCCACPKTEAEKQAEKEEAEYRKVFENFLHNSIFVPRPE
T1 sequence (P08069 741-1367, chain 2 of 2): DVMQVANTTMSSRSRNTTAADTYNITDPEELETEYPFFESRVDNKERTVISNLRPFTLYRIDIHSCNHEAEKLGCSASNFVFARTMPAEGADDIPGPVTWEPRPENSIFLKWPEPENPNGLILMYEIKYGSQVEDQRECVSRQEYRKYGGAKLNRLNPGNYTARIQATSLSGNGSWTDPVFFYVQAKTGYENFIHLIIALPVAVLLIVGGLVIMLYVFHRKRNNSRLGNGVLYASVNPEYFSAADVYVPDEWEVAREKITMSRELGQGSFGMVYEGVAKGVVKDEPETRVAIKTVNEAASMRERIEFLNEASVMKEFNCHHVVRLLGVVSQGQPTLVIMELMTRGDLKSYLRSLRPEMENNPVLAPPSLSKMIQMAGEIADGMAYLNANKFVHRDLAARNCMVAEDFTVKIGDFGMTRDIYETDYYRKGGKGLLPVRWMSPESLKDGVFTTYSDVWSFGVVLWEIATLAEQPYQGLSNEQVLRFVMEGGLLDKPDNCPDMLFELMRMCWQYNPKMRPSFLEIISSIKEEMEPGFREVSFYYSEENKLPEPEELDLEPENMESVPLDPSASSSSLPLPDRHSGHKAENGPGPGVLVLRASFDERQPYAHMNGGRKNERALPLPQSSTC

B1: E-cadherin (CDH1) (other)
chain: DWVIPPISCPENEKGPFPKNLVQIKSNKDKEGKVFYSITGQGADTPPVGVFIIERETGWLKVTEPLDRERIATYTLFSHAVSSNGNAVEDPMEILITVTDQNDNKPEFTQEVFKGSVMEGALPGTSVMEVTATDADDDVNTYNAAIAYTILSQDPELPDKNMFTINRNTGVISVVTTGLDRESFPTYTLVVQAADLQGEGLSTTATAVITVTDTNDNPPIFNPTTYKGQVPENEANVVITTLKVTDADAPNTPAWEAVYTILNDDGGQFVVTTNPVNNDGILKTAKGLDFEAKQQYILHVAVTNVVPFEVSLTTSTATVTVDVLDVNEAPIFVPPEKRVEVSEDFGVGQEITSYTAQEPDTFMEQKITYRIWRDTANWLEINPDTGAISTRAELDREDFEHVKNSTYTALIIATDNGSPVATGTGTLLLILSDVNDNAPIPEPRTIFFCERNPKPQVINIIDADLPPNTSPFTAELTHGASANWTIQYNDPTQESIILKPKMALEVGDYKINLKLMDNQNKDQVTTLEVSVCDCEGAAGVCRKAQPVEAGLQIPAILGILGGILALLILILLLLLFLRRRAVVKEPLLPPEDDTRDNVYYYDEEGGGEEDQDFDLSQLHRGLDARPEVTRNDVAPTLMSVPRYLPRPANPDEIGNFIDENLKAADTDPTAPPYDSLLVFDYEGSGSEAASLSSLNSSESDKDQDYDYLNEWGNRFKKLADMYGGGEDD
notes: Endogenous E-cadherin in MCF-7 and T47D breast cancer cells; also called epithelial cadherin; CD324
For the molecule B1, the binding result is on record as “binds”.
